The numbers were not newly measured in PMC4448168, which cites them from elsewhere.

The target of the data set is α7 nAChR (UniProt P36544).

pKi: −log10 of the molar value.

UniProt P36544, sequence (P36544 23-502): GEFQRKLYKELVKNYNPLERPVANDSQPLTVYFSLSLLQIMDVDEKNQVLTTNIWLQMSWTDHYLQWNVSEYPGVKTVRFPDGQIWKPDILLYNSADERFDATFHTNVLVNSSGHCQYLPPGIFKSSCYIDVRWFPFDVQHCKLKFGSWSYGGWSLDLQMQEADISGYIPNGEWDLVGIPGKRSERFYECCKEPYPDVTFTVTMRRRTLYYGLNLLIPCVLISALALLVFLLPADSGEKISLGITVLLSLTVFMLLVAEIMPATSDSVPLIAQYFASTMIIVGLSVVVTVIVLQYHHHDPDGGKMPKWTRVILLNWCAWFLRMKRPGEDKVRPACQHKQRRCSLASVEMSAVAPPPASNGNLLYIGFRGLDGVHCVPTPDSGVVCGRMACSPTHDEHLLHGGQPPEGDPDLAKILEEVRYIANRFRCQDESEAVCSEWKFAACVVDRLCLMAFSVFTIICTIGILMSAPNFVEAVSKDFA

Turning to α-elapitoxin-Aa2a (from UniProt P86522), the pKi was 3.67.
